Experiment [1] addresses T1, human cation-independent mannose-6-phosphate receptor, native, on cells (human, UniProt P11717 41-2491).
T1 construct: whole, on cells; also called native CI-M6PR; cell-surface hCI-M6PR
Briefly: flow cytometry on HepG2 cells: FLAG3-tagged VHH 30 min on ice, M2 anti-Flag mAb, PE anti-mouse F(ab')2 [upper graph]. From the text:
Synthetic DNA fragments encoding VHHs were ordered (IDT, Leuven, Belgium) and subcloned into an E. coli expression vector under control of an IPTG-inducible lac promoter, in frame with N-terminal PelB signal peptide (which directs the recombinant proteins to the periplasmic compartment) and C-terminal FLAG3 and His6 tags. […] VHH proteins were purified from these clones by means of IMAC chromatography followed by desalting according to well established procedures¹⁰⁶. Cells used herein were recovered using cell dissociation non-enzymatic solution (Sigma Aldrich, cat. #C5914-100ML) and resuspended to a final concentration of 1,000,000 cells/mL in FACS buffer. Cells were incubated with different concentrations of purified FLAG3-tagged VHHs for 30 minutes on ice with shaking, followed by washing and incubation with mouse M2 anti-Flag mAb (Sigma Aldrich, cat. #F-1804) in FACS buffer for 30 min on ice with shaking, followed again by washing. […] Flow cytometry and analysis were done on an Attune NxT Flow Cytometer (Thermo Fisher Scientific).
Moreover, cross-reactivity to mouse CI-M6PR was analyzed, in view of the amino acid homology between mouse and human being overall about 80% identity, but for domain 1-3 of CI-M6PR just about 75% identity.
On the technique in general: In flow cytometry, cells or beads pass a laser one at a time.

Experiment [2] has as its target T2, recombinant human domain 1-3His6 of the cation-independent mannose-6-phosphate receptor (human, UniProt P11717 41-467).
T2 construct: Biotinylated (NHS-PEG4-biotin) for BLI; Glycosylated; also called hDom1-3His6; hCI-M6PRD1-D3
In words: BLI at pH 7.4, 1st of 2 repeats; BLI, biotinylated hDom1-3His6 on streptavidin tips, pH 7.4, experiment 1. As for the experimental part:
(§1) For each of the 11 anti-CI-M6PR VHHs, a biolayer interferometry (BLI) experiment was performed in which the hDom₁₋₃His₆ was biotinylated and coupled to streptavidin biosensor tips. Afterwards, the tips were incubated with serially diluted VHHs during the association phase and dissociation was performed at pH 7.4. Similarly, dissociation was performed at pH 7.0, pH 6.0 and pH 5.0 as well after regeneration of the biosensor tips. […] The anti-CI-M6PR antibody (clone 2G11) and GBP were used as positive and negative controls, respectively.
Analysis of the binding kinetics was performed using an Octet Red96 (FortéBio) device with Streptavidin SA Biosensor tips (VWR 733-2145). Therefore, 1 mL of human domain₁₋₃His₆ (0.5 mg/mL in 50 mM MES, 150 mM NaCl, pH 6.5) was incubated at room temperature for 30 minutes with EZ-Link™ NHS-PEG4-Biotin (1 mg) (Thermo Fischer A39259) and NaHCO₃ (100 mM). Biotinylated human domain₁₋₃His₆ was purified using a Zeba spin desalting Column™ (7K MWCO, 2 mL, Thermo Fischer 89890) and 1 μg/mL was used for immobilization on the Streptavidin SA Biosensor tips. The loaded tips were dipped into a particular anti-CI-M6PR VHH solution, serially diluted in kinetics buffer (0.2M NaH₂PO₄, 0.1M Na⁺ citrate, 0.01% BSA, 0.002% Tween20, pH 7.4). This was followed by dissociation of the particular anti-CI-M6PR VHH in kinetics buffer of pH 7.4, followed by regeneration in Glycine (10 mM, pH 3) and neutralisation. Same cycle was repeated but the dissociation was performed at pH 7.0, 6.0, 5.0, 4.5 and 4.0. A reference well and reference sensors were subtracted from ligand sensors afterwards and Savitsky-Golay filtering was applied on the data. Fitting of the data was performed using a 1:1 model, grouped per pH of dissociation.

The target in experiment [3] is T2, recombinant human domain 1-3His6 of the …. In words: BLI exp 2, dissoc pH not printed (between 6 and 5, presumably 5.5). As for the experimental part: as §1
Analysis of the binding kinetics was performed using an Octet Red96 (FortéBio) device with Streptavidin SA Biosensor tips (VWR, 733-2145). To this end, 1 mL of hCI-M6PR_D1-D3 (0.5 mg/mL in 50 mM MES, 150 mM NaCl, pH 6.5) was incubated at room temperature for 30 minutes with a two-fold molar excesses of EZ-Link™ NHS-PEG₄-Biotin (Thermo Fischer, A39259) and NaHCO₃ (100 mM, pH 8.3). Biotinylated hCIMPR_D1-D3 was purified using a Zeba spin desalting column (Thermo Fischer, 89890) and protein concentration was calculated by measuring the absorbance at 280 nm (extinction coefficient 50320 M¹ cm⁻¹). Two-fold biotin-labelled antigen was loaded on the tips (2.5 μg/mL) and subsequently dipped into a particular anti-CI-M6PR VHH-containing solution (ranging from 0-100 nM). […]

These results are taken from patent US20250263490A1 (VIB VZW, published 2025).

B1: anti-CI-M6PR VHH8 (VHH)
VHH: QVQLQESGGGLVQAGGSLRLSCEASGRTFNTYNWGWFRQAPGKEREFVAAIRWSSSKTSYADSVKGRFTISRDNAKNTIYLQMNSLKPEDTAVYYCAASIVDFTTNPSHFGSWGQGTQVTVSS
notes: His6-tagged (Pichia pastoris)
One may read the EC50 (read off the curve) as the midpoint of the concentration-response curve. A lower EC50 (read off the curve) goes with a more potent agent. On to B1, for which the “EC50 (read off the curve)” value in experiment [1] was roughly 2 nM.

B2: anti-CI-M6PR VHH4 (VHH)
VHH: QVQLQESGGGLVQAGGSLRLSCAASGRTFSNYVMGWFRQAPGKEREFVGSISQGGKMTYYPDSVKGRFTISRDNAKNTMYLQMDGLKPEDTAVYYCAVSRGYPMVRVSEVDYWGQGTQVTVSS
notes: His6-tagged; made in Pichia pastoris
As usually defined, the Kd is a measure of binding affinity in units of concentration. Broadly, the koff is a measure of how fast the partners let go of each other. The term kon denotes the rate constant with which the complex forms. Take B2: in experiment [2], the equilibrium dissociation constant (Kd) came to 2.33 nM, the koff was determined as 0.00133 s⁻¹ and the on-rate constant (kon) was found to be 571000 M⁻¹ s⁻¹.

B3: anti-CI-M6PR VHH5 (VHH)
VHH: QVQLQESGGGLVQAGGSLKLSCAAAGRTFSRLAMGWFRQAPGKEREFVAAISENGDSIHYSDSVKGRFAVSRDNAKNTVYLQMNSLKPEDTAIYYCAADRAAYYCSGSGCYPSRAPAAASYDYWGQGTQVTVSS
notes: His6-tagged; made in Pichia pastoris, later also in E. coli WK6
On to B3, for which, in experiment [3], the off-rate (koff) was found to be 0.00062 s⁻¹ and the kon was found to be 2.1e+06 M⁻¹ s⁻¹.
